In the supplement of paper PMC10065799, “High-throughput profiling of sequence recognition by tyrosine kinases and SH2 domains using bacterial peptide display” (eLife, 2023):

Tests used:
SHP2-C SH2 = experiment: SH2 binding enrichment of the phosphorylated peptide, bacterial display (enrichment ratio); higher = better substrate or ligand; peptides without Tyr show the background
c-Src SH2 = experiment: as above
Grb2 SH2 = Grb2 SH2 (UniProt P62993); experiment: as above
Fyn = Fyn (UniProt P06241); experiment: phosphorylation enrichment, bacterial display (enrichment ratio); higher = better substrate or ligand; peptides without Tyr show the background
EPHB2 = EPHB2 (UniProt P29323); experiment: as above
FGFR3 = FGFR3 (UniProt P22607); experiment: as above
Fes = Fes (UniProt P07332); experiment: as above
c-Abl (mouse) = experiment: as above
EPHB1 = EPHB1 (UniProt P54762); experiment: as above
MERTK = MERTK (UniProt Q12866); experiment: as above
AncSZ = experiment: as above
Hck = Hck (UniProt P08631); experiment: as above
FGFR1 = FGFR1 (UniProt P11362); experiment: as above
c-Src = experiment: as above
Fer (mouse) = experiment: as above
Jak2 = Jak2 (UniProt O60674); experiment: as above
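Wherever SH2 binding enrichment of the phosphorylated peptide, bacterial display is given: peptide library displayed on the E. coli surface as eCPX fusions, selected cells deep-sequenced, score is each peptide's frequency after selection divided by its frequency in the input.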
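Wherever phosphorylation enrichment, bacterial display is given: 11-residue human phosphosite peptides and single-mutation variants displayed on the E. coli surface, counted by deep sequencing, each peptide's frequency after selection divided by its frequency in the unselected input library; frequency after pTyr selection over input frequency; kinase dosed for 20-30% of maximal phosphorylation in three min.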

Sequence of FGFR3 (P22607 whole entry, looked up): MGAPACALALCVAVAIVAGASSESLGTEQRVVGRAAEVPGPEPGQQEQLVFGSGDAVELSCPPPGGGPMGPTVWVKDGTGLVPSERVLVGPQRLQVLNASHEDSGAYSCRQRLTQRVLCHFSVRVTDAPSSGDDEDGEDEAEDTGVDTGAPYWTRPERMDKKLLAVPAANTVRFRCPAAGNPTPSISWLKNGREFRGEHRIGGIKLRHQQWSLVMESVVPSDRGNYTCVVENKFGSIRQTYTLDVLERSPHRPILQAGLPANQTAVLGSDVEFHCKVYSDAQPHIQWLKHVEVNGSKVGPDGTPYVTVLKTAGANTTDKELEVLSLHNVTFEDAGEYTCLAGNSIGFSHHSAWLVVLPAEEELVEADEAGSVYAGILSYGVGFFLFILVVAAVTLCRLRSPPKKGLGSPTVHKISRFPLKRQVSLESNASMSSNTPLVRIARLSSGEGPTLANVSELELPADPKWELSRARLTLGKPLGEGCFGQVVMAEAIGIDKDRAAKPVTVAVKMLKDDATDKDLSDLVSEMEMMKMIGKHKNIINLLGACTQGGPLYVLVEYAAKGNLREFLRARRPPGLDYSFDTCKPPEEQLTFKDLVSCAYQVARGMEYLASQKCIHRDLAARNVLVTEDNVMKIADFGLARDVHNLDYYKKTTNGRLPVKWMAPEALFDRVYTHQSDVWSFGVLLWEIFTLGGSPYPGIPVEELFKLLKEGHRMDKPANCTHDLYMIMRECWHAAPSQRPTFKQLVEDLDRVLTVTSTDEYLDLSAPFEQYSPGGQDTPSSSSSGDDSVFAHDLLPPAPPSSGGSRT
Sequence of Fyn (P06241 whole entry, looked up): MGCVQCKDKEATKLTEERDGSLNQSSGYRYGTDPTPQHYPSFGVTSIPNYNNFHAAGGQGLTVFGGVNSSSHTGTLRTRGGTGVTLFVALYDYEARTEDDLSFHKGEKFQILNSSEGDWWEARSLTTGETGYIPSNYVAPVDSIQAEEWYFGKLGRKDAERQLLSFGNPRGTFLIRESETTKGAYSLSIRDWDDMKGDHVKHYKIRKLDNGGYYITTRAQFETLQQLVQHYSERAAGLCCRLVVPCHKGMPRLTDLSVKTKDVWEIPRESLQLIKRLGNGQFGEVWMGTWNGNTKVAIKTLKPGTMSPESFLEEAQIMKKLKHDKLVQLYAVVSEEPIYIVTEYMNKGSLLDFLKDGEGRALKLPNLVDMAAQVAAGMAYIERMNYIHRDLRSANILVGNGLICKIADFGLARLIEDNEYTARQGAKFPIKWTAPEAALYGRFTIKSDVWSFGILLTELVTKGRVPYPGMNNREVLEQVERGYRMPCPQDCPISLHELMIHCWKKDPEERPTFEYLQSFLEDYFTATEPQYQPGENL
Sequence of Fes (P07332 whole entry, looked up): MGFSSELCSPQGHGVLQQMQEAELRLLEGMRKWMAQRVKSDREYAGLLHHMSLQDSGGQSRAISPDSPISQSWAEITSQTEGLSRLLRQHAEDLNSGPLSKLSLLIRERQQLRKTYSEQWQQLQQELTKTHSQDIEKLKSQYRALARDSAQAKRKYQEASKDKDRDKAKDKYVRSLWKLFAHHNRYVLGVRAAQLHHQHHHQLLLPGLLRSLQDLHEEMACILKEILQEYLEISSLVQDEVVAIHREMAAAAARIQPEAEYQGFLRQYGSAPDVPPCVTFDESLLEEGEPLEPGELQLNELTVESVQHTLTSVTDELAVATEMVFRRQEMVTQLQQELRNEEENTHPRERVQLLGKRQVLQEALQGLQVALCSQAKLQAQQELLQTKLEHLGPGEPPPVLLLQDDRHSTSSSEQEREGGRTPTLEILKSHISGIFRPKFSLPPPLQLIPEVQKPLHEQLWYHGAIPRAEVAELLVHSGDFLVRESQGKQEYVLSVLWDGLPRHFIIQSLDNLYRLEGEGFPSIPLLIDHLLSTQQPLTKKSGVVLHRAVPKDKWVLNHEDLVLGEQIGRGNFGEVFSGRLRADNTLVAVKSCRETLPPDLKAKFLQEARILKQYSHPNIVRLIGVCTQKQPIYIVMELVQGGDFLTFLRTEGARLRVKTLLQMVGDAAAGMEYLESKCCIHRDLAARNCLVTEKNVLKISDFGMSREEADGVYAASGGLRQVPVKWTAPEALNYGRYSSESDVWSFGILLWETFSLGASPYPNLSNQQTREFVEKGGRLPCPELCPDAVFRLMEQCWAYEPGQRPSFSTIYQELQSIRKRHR
Sequence of MERTK (Q12866 whole entry, looked up): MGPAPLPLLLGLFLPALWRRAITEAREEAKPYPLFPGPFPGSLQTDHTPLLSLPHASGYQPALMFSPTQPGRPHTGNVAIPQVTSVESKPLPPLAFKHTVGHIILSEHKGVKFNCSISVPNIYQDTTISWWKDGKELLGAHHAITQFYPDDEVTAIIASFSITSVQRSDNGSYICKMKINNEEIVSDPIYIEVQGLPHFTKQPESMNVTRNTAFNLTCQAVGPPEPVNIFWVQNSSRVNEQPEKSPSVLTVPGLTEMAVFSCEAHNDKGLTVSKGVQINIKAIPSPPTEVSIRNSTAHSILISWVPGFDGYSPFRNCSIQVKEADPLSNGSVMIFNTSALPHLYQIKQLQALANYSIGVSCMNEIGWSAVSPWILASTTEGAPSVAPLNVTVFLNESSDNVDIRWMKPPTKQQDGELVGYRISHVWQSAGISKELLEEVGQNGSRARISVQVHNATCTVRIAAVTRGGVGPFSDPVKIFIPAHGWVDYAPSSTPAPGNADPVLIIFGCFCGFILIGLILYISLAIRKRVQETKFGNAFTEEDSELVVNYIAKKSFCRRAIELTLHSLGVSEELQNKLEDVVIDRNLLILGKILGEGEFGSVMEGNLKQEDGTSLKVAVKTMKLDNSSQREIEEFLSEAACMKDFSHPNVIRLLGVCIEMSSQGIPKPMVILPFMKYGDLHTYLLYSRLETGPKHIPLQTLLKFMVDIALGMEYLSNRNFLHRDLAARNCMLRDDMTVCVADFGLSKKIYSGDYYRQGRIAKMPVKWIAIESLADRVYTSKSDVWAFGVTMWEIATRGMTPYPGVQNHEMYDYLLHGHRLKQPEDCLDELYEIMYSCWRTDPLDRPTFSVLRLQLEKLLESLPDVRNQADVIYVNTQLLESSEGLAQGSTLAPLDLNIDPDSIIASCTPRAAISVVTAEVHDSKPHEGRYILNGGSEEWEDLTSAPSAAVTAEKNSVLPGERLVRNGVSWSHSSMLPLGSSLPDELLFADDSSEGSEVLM
Sequence of Grb2 SH2 (P62993 whole entry, looked up): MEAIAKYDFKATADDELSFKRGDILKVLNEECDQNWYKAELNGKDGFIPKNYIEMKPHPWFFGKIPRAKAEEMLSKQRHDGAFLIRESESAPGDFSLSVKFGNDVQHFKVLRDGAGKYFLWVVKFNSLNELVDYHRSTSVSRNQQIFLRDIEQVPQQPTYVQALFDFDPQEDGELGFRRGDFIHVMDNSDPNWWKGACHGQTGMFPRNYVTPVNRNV
Sequence of EPHB2 (P29323 whole entry, looked up): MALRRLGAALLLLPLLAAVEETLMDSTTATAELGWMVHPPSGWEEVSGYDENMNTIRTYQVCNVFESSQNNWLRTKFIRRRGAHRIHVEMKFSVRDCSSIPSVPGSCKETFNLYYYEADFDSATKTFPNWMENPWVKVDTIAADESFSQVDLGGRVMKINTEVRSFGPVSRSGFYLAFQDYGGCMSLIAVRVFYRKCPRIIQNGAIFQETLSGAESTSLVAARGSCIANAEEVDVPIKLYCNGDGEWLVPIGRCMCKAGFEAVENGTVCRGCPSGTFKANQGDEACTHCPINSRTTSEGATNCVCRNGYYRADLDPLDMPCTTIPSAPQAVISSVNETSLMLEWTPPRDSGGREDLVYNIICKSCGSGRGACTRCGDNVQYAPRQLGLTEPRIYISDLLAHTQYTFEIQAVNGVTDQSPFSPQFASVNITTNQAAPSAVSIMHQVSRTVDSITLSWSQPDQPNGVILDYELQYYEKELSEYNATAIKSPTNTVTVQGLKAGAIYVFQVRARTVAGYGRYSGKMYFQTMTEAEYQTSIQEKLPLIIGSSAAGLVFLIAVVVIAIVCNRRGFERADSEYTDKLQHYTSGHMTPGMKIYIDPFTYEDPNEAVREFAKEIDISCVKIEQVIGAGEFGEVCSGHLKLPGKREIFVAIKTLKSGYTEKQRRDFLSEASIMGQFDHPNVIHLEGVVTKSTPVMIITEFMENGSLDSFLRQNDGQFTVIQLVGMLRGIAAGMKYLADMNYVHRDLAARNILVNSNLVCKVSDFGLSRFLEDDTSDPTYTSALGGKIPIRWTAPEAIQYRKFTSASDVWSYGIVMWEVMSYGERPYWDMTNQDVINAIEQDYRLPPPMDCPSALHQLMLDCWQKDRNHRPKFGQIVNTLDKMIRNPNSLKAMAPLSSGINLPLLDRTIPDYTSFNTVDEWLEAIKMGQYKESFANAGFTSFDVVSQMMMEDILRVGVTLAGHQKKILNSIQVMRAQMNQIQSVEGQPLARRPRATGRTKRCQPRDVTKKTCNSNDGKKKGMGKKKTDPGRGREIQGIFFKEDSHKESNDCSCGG
Sequence of Hck (P08631 whole entry, looked up): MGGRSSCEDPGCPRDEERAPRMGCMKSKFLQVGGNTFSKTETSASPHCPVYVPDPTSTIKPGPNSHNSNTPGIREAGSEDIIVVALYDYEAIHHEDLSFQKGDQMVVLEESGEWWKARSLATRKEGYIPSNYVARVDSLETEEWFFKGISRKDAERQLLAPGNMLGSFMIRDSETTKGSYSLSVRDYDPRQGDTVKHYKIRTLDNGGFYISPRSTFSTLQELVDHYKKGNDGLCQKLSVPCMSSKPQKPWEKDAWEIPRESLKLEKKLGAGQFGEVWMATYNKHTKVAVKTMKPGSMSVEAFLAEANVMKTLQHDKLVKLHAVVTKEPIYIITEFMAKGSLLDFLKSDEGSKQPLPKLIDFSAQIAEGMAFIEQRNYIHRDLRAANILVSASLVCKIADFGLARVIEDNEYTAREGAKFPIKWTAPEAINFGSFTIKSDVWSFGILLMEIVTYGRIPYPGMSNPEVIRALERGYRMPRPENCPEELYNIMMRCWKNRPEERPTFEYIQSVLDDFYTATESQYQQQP

Sequence | SH2 binding enrichment (SHP2-C SH2) | SH2 binding enrichment (c-Src SH2) | SH2 binding enrichment (Grb2 SH2) | phosphorylation enrichment (Fyn) | phosphorylation enrichment (EPHB2) | phosphorylation enrichment (FGFR3) | phosphorylation enrichment (Fes) | phosphorylation enrichment (c-Abl (mouse)) | phosphorylation enrichment (EPHB1) | phosphorylation enrichment (MERTK) | phosphorylation enrichment (AncSZ) | phosphorylation enrichment (Hck) | phosphorylation enrichment (FGFR1) | phosphorylation enrichment (c-Src) | phosphorylation enrichment (Fer (mouse)) | phosphorylation enrichment (Jak2)
SYNNKYGMVAQ [APOB_Y276_K273N] | 0.555 | 0.49 | 0.713 | 0.428 | 0.474 | 0.471 | 0.632 | 0.61 | 0.381 | 0.378 | 0.623 | 0.476 | 0.41 | 0.467 | 0.411 | 0.607
SYTDPYAQPSL [KMT2D_Y2378_P2382S] | 0.775 | 2.6 | 0.823 | 0.611 | 0.568 | 1.89 | 1 | 0.82 | 0.583 | 0.532 | 1.18 | 0.567 | 3.11 | 0.576 | 0.479 | 0.718
TAGFSYEKWEI [TEC_Y360] | 0.701 | 0.484 | 0.706 | 0.503 | 0.577 | 0.72 | 1.21 | 0.694 | 0.472 | 0.549 | 1.52 | 0.536 | 0.533 | 0.463 | 1.46 | 1
TAPFNYSFIFK [RAB14_Y8_YF] | 0.722 | 0.724 | 0.581 | 0.493 | 0.692 | 0.771 | 1.1 | 0.657 | 2 | 2.27 | 0.975 | 0.56 | 0.405 | 0.377 | 0.376 | 0.757
TDGIAYEFRVT | 0.575 | 0.449 | 0.577 | 0.487 | 0.582 | 0.916 | 1.51 | 0.933 | 0.608 | 0.403 | 1.36 | 0.49 | 0.528 | 0.491 | 0.639 | 1.37
TDISLYPSGGT [TENM4_Y399_V396I] | 0.616 | 0.436 | 0.661 | 0.414 | 0.632 | 0.536 | 0.84 | 0.528 | 0.46 | 0.394 | 0.637 | 0.398 | 0.457 | 0.391 | 0.39 | 0.657
TEIGQYGNGLK [MORC2_Y100_Q96E] | 0.432 | 0.51 | 0.662 | 0.393 | 0.434 | 0.499 | 0.579 | 0.556 | 0.543 | 0.354 | 0.522 | 0.448 | 0.404 | 0.331 | 0.394 | 0.588
TENAGYFFQVS | 0.654 | 0.333 | 0.61 | 0.435 | 0.546 | 0.774 | 1.08 | 0.89 | 0.482 | 0.397 | 1.11 | 0.442 | 0.714 | 0.384 | 0.414 | 1.21
TESALYGCTVV [KIAA1804_Y724_L729V] | 0.657 | 0.336 | 0.685 | 5.73 | 0.833 | 0.802 | 1.43 | 0.888 | 0.783 | 1.83 | 1.18 | 4.37 | 0.517 | 4.43 | 5 | 1.17
TEVRRYVLPLN [RPE65_Y368_P363T] | 0.737 | 0.829 | 0.852 | 0.412 | 0.4 | 0.785 | 0.887 | 0.526 | 0.377 | 0.401 | 0.649 | 0.407 | 0.482 | 0.38 | 0.514 | 0.661
TFRPPYFHRDC [HGD_Y333_N337D_YF] | 0.741 | 0.93 | 1.18 | 0.427 | 0.431 | 2 | 0.847 | 0.587 | 0.432 | 0.424 | 0.617 | 0.454 | 0.496 | 0.558 | 0.422 | 0.685
TFVVLYDAELT [ERCC4_Y581_R576T_YF] | 1.73 | 0.893 | 1.38 | 0.712 | 1.03 | 0.92 | 1.61 | 0.979 | 1.18 | 0.724 | 1.31 | 0.568 | 0.696 | 0.596 | 0.669 | 1.49
TFWKKYRTFWK [CCDC70_Y125] | 1.18 | 0.517 | 0.843 | 0.46 | 0.308 | 0.555 | 0.8 | 0.723 | 0.472 | 0.446 | 0.702 | 0.371 | 0.403 | 0.664 | 0.409 | 0.934
TIAIRYSHSRR [ACOXL_Y260] | 0.44 | 0.495 | 0.608 | 0.644 | 0.622 | 0.599 | 0.918 | 0.655 | 0.363 | 0.648 | 0.746 | 0.576 | 0.536 | 0.691 | 0.632 | 0.785
TIMTNYNPNFC [ALK_Y1092_D1091N_YF] | 0.531 | 0.478 | 0.775 | 0.545 | 0.784 | 0.694 | 1.06 | 0.716 | 0.43 | 0.485 | 0.987 | 0.5 | 0.576 | 0.533 | 0.512 | 0.865
TISPFYRQSLF [CRYAA_Y48_YF] | 0.706 | 0.612 | 0.85 | 0.437 | 0.528 | 0.489 | 0.76 | 0.49 | 0.435 | 0.467 | 0.648 | 0.396 | 0.448 | 0.395 | 0.369 | 0.693
